Results from patent publication US12466878 (IMMATICS BIOTECHNOLOGIES, dated 2025).

Biological target: T1, HLA-A*02:01 (human)
T1 construct: the format of the assay is not described
Experiment: ELISA-based peptide-MHC binding assay (FIG. 5)

binding result: binds
B1: IGF2BP3-001 peptide KIQEILTQV (SEQ ID NO: 1) (peptide)
peptide: KIQEILTQV
